How the values were obtained:
[1] = target: E-cadherin/β-catenin complex (Mus musculus) (UniProt P09803); conditions: cited from earlier work
Dr αE-catenin = target: T1, Dr αE-catenin (Danio rerio (zebrafish), UniProt Q9PVF8 1-907); assay: reconstitution of the complex on the coverslip, read by optical trap
T1 sequence (looked up): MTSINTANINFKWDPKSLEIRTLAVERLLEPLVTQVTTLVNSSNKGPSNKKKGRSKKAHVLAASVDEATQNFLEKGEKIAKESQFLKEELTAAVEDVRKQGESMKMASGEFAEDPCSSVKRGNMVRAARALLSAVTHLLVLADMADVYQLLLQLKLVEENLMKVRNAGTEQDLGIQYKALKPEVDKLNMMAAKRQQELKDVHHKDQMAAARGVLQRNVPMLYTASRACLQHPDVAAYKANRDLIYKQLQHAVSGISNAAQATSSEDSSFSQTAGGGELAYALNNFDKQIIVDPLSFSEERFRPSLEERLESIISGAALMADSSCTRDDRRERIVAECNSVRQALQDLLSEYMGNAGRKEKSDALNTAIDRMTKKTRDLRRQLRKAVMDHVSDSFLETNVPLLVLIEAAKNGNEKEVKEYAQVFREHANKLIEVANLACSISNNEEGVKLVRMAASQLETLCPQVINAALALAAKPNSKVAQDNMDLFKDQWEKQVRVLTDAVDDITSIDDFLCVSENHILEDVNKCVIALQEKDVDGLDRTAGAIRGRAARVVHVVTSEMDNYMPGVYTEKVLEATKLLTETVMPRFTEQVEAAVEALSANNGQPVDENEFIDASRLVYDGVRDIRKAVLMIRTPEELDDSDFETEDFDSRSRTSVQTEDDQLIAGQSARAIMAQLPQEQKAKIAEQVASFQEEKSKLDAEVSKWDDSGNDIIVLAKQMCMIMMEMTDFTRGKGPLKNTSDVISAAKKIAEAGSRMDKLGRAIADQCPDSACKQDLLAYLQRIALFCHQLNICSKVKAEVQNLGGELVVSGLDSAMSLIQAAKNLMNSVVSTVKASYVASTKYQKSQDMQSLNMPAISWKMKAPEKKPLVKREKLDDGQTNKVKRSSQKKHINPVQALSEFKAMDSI

Sequence of E-cadherin/β-catenin complex (Mus musculus) (P09803 157-884, chain 1 of 2): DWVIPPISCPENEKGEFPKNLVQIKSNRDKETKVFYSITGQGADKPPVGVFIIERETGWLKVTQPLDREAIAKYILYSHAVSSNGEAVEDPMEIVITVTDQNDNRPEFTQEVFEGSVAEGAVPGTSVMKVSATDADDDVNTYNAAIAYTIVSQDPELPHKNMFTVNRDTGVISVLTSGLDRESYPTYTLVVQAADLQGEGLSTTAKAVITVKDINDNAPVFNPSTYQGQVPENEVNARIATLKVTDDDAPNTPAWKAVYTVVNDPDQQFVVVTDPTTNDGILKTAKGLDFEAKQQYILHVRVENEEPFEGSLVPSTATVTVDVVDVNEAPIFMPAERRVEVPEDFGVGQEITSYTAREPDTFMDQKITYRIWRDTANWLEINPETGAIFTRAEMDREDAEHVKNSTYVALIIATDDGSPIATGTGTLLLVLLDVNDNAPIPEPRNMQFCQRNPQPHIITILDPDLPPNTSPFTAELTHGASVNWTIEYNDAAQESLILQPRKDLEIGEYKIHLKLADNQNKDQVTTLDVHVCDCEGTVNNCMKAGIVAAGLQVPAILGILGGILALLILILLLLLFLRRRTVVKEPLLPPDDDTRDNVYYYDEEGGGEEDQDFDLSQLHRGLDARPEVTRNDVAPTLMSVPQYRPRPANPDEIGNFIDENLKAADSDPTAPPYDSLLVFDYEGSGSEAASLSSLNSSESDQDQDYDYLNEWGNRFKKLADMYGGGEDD
Sequence of E-cadherin/β-catenin complex (Mus musculus) (Q02248 2-781, chain 2 of 2, further chain): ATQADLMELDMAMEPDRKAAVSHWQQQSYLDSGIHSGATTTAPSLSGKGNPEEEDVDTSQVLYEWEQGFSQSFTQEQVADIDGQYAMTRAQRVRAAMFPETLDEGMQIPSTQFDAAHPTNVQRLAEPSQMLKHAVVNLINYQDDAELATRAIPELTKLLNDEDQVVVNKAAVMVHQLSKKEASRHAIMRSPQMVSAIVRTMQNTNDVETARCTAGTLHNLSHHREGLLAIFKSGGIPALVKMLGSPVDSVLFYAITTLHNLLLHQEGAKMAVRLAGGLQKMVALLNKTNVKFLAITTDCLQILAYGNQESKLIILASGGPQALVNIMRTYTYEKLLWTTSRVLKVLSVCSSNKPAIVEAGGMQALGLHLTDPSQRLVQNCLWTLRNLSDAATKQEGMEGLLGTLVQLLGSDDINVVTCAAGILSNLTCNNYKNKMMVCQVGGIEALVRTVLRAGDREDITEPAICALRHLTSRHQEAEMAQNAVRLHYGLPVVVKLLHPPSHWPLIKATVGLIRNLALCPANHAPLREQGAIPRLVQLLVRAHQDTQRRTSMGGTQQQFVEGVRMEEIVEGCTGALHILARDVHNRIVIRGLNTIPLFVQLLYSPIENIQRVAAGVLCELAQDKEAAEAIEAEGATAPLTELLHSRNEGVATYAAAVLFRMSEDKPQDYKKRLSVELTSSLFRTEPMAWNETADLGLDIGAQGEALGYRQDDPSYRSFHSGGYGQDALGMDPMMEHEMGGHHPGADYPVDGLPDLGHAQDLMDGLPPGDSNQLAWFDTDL

## αE-catenin (from UniProt P26231)
[1]
  Kd: 1 nM

B1: Dr β-catenin (natural protein, Danio rerio (zebrafish), UniProt F1QGH7 1-780, looked up)
chain: MATQSDLMELEMAMDPDRKAAVSHWQQQSYLDSGIHSGATTTAPSLSGKGNPEDDDVDNQVLYEWEQGFNQSFNQEQVADIDGQYAMTRAQRVRAAMFPETLDEGMQIPSTQFDSAHPTNVQRLAEPSQMLKHAVVNLINYQDDAELATRAIPELTKLLNDEDQVVVNKAAVMVHQLSKKEASRHAIMRSPQMVSAIVRTMQNTNDVETARCTSGTLHNLSHHREGLLAIFKSGGIPALVKMLGSPVDSVLFYAITTLHNLLLHQEGAKMAVRLAGGLQKMVALLNKTNVKFLAITTDCLQILAYGNQESKLIILASGGPQALVNIMRTYTYEKLLWTTSRVLKVLSVCSSNKPAIVEAGGMQALGLHLTDPSQRLVQNCLWTLRNLSDAATKQEGMEGLLGTLVQLLGSDDINVVTCAAGILSNLTCNNYKNKMMVCQVGGIEALVRTVLRAGDREDITEPAICALRHLTSRHQDAEMAQNAVRLHYGLPVVVKLLHPPSHWPLIKATVGLIRNLALCPANHAPLREQGAIPRLVQLLVRAHQDTQRRTSMGGTQQQFVEGVRMEEIVEGCTGALHILARDIHNRIVIRGLNTIPLFVQLLYSPIENIQRVAAGVLCELAQDKEAAEAIEAEGATAPLTELLHSRNEGVATYAAAVLFRMSEDKPQDYKKRLSVELTSSLFRTEPMTWNETGDLGLDIGAQGEPLGYRQDDPSYRSFHSGGYGQDAMGMDPMMEHEMAGHHPGPDYPVDGLPDLGHTQDLIDGLPPGDSNQLAWFDTDL
Dr αE-catenin
  binding result: binds

From article PMC4364042 (Science (New York, N.Y.), 2014)
